According to PMC7363131, “Interaction of the Streptomyces Wbl protein WhiD with the principal sigma factor σ^HrdB depends on the WhiD [4Fe-4S] cluster” (The Journal of Biological Chemistry, 2020):

Target: T1, S. venezuelae WhiD (SvWhiD), N-terminally His6-tagged, full length (S. venezuelae, [4Fe-4S] cluster bound as isolated (cluster loading ~90%); cluster-free (apo) form after exposure to O2; N-terminal methionine cleaved)
T1 construct: WhiD of Streptomyces venezuelae, Wbl family [4Fe-4S] protein; codon-optimized gene in pET28a (NdeI/HindIII); His-tagged protein 15,923 Da by LC-MS (predicted 15,924 Da without the N-terminal methionine); The holo ([4Fe-4S]) and apo (cluster-free) forms have the same polypeptide and are kept as one molecule; The assay and the 'only:' limit tell which form was tested; The preparation holds ~10% …
Assay: native MS; nondenaturing ESI-MS titration; SvWhiD 3 μM with σ^HrdB4 0.75-21 μM, I151A FNR (3 μM) as internal standard, 250 mM ammonium acetate, pH 7.2; fractional saturation against free σ^HrdB4 fitted with a simple binding isotherm
Settings: both partners purified

B1: Domain 4 of the S. venezuelae principal sigma factor σ^HrdB (σ^HrdB4), N-terminally His6-tagged (domain or fragment)
chain: PADAVSFTLLQEQLHSVLDTLSEREAGVVSMRFGLTDGQPKTLDEIGKVYGVTRERIRQIESKTMSKLRHPSRSQVLRDYLD
Kd: 740 nM
